Changes are numbered by the printed parent chain.
Key:
Experiment in all cases: ELISA, antibody coated, LAG-3 D12.mFc mutant in supernatant, normalised to control mutants
[1] = target: T1, human LAG-3-ECD.D12.mFc mutant L42A (human, UniProt P18627 37-252)
T1 construct: Alanine scanning mutant; construct limits as for m26
T1 chain: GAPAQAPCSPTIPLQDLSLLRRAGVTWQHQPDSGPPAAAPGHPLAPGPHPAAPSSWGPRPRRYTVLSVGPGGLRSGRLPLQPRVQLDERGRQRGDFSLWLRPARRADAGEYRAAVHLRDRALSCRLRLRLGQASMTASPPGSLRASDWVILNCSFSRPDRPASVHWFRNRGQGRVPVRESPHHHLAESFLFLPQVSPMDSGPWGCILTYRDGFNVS
Experimental: (§1) For ELISA binding assay, the antibody 1.53.3-uAb-IgG4k or 3.40.19-uAb-hIgG4L (2 μg/mL) was coated in plates. After interacting with the supernatant that contains quantified LAG-3 mutants or human LAG-3-ECD.D12.mFc protein, HRP conjugated anti-mFc antibody (1:5000; Bethyl, USA) was added as a detection antibody. Absorbance was normalized according to the average absorbance of control mutants. After setting an additional cutoff to the binding fold change (<0.75), the final determined epitope residues were identified.

[2] = target: T2, human LAG-3-ECD.D12.mFc mutant A139G (human, UniProt P18627 37-252)
T2 construct: construct limits as for m26
T2 chain: T1 chain with A6L, A103G
Experimental: as §1

[3] = target: T3, human LAG-3-ECD.D12.mFc mutant L153A (human, UniProt P18627 37-252)
T3 construct: Alanine scanning mutant; construct limits as for m26
T3 chain: T1 chain with A6L, L117A
Experimental: as §1

[4] = target: T4, human LAG-3-ECD.D12.mFc mutant L164A (human, UniProt P18627 37-252)
T4 construct: Alanine scanning mutant; construct limits as for m26
T4 chain: T1 chain with A6L, L128A
Experimental: as §1

[5] = target: T5, human LAG-3-ECD.D12.mFc mutant L122A (human, UniProt P18627 37-252)
T5 construct: Alanine scanning mutant; construct limits as for m26
T5 chain: T1 chain with A6L, L86A
Experimental: as §1

[6] = target: T6, human LAG-3-ECD.D12.mFc mutant W63A (human, UniProt P18627 37-252)
T6 construct: Alanine scanning mutant; construct limits as for m26
T6 chain: T1 chain with A6L, W27A
Experimental: as §1

[7] = target: T7, human LAG-3-ECD.D12.mFc mutant A59G (human, UniProt P18627 37-252)
T7 construct: construct limits as for m26
T7 chain: T1 chain with A6L, A23G
Experimental: as §1

[8] = target: T8, human LAG-3-ECD.D12.mFc mutant G145A (human, UniProt P18627 37-252)
T8 construct: Alanine scanning mutant; construct limits as for m26
T8 chain: T1 chain with A6L, G109A
Experimental: as §1

B1: 3.40.19-uAb-IgG4L (antibody, V domains shown)
VH: QLQLQESGPGLVKPSETLSLTCTVSGDSISSTSYYWGWIRQPPGKGLEWIGSFYYSGSTYYNPSLKSRVTISVDTSKNQFSLKLNSVTAADTAVYYCARMQLWSYDVDVWGQGTTVTVSS
VL: QSALTQPASVSGSPGQSITISCTGTSSDVGGYDYVAWYQQHPGKVPKLMIYDVSERPSGVSNRFSGSKSGNTASLTISGLQAEDEADYYCSSYTSTTTLVVFGGGTKLSVL
notes: Fully human antibody from OMT rats; IgG4 lambda by its name; also called 3.40.19-uAb-hIgG4L
Fold Change [1]: 0.306 | Fold Change [2]: 0.368 | Fold Change [3]: 0.632 | Fold Change [4]: 0.278 | Fold Change [5]: 0.391 | Fold Change [6]: 0.171 | Fold Change [7]: 0.542 | Fold Change [8]: 0.466

B2: 1.53.3-uAb-IgG4k (antibody, V domains shown)
VH: QVQLQQWGAGLLKPSETLSLTCGVYGGSFSGYYWSWIRQPPGMGLEWIGEINHRGNTNYNPSLKSRVTISEDTSKNQFSLRLSSVTAADTAVYFCTRGEDYSDYDYYGDFWGQGTLVTVSS
VL: EIVLTQSPATLSLSQGERATLSCRASQSISSYLAWYQQKPGQAPRLLIYAASNRATGIPARFSGSGSGTDFTLTISSLEPEDFAIYYCQQRSNWPLTFGGGTKVEIK
notes: Fully human antibody from OMT rats; IgG4 kappa by its name
Fold Change [1]: 0.624 | Fold Change [2]: 0.708 | Fold Change [3]: 0.749 | Fold Change [4]: 0.586 | Fold Change [5]: 0.607 | Fold Change [6]: 0.585 | Fold Change [7]: 0.718 | Fold Change [8]: 0.692
